For this experiment, the target named is alpha-synuclein (Homo sapiens, UniProt P37840). Description: SPR.

In the case of PYYYWKDPNGS (preformed fibrils) [PYYYWKDPNGS peptide], binding was characterised by a dissociation constant (Kd) of 39.2 µM. ELAQMPYYYWKDPNGS (preformed fibrils) [ELAQMPYYYWKDPNGS peptide] came in with a Kd of 133 µM. EQALMPWIWYWKDPNGS (preformed fibrils) [EQALMPWIWYWKDPNGS peptide] came in with a Kd of 28.4 µM. With PYYYWKELAQM (preformed fibrils) [PYYYWKELAQM peptide] the figure was 55.2 µM; with ELAQMGPEGMGLEDPNGS (preformed fibrils) [ELAQMGPEGMGLEDPNGS peptide], 194 µM.

The Kd is the free concentration of one partner at which half of the binding sites on the other are occupied at equilibrium, for simple one-to-one binding. Low values mean a tighter complex, high ones a looser complex.

The record behind these values is PMC11591946 (2024).
